Results reported in US20160115235A1 (ARES TRADING S A, published 2016).

T1: cynomolgus monkey (Macaca fascicularis) CXCR5 (cynomolgus monkey (Macaca fascicularis), UniProt P32302 1-372 (human entry))
T1 construct: Full length, on stably transfected cells (CHO, L1.2) or native on cynomolgus B cells in whole blood; also called cCXCR5
T1 chain: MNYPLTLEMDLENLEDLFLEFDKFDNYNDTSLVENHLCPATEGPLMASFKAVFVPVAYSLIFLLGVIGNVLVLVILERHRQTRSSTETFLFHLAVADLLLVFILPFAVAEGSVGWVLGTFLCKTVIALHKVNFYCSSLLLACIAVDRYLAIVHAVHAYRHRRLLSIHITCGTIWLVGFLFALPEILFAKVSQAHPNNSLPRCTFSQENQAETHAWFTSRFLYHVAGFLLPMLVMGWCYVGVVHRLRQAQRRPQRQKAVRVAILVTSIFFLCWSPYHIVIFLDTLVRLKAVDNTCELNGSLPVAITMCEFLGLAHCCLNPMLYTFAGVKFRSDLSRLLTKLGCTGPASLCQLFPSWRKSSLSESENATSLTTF

T2: human CXCR5 (human, UniProt P32302 1-372)
T2 sequence: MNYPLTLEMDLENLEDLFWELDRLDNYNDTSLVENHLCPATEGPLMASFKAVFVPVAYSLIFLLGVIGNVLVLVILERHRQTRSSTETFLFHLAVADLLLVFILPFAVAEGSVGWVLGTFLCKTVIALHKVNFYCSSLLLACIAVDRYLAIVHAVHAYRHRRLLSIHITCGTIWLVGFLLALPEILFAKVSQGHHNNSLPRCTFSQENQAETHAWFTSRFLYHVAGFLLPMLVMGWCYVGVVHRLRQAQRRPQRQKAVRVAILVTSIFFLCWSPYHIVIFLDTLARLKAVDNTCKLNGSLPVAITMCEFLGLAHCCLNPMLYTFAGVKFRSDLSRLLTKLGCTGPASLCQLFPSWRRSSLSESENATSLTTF

T3: rat CXCR5 (rat, UniProt P34997 1-374)
T3 construct: whole, on cells
T3 sequence (looked up): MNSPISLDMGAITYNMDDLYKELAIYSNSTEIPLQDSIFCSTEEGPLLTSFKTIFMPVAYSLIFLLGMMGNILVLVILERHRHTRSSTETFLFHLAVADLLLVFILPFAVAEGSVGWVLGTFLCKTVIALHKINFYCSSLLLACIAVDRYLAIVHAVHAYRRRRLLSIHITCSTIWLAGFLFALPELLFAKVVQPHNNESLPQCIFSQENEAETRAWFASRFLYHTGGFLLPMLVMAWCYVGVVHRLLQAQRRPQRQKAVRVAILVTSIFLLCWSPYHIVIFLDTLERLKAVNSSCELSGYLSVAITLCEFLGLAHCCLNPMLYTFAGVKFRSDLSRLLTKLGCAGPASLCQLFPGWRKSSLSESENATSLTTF

T4: mouse CXCR5 (mouse, UniProt Q04683 1-374)
T4 construct: whole, on cells
T4 sequence (looked up): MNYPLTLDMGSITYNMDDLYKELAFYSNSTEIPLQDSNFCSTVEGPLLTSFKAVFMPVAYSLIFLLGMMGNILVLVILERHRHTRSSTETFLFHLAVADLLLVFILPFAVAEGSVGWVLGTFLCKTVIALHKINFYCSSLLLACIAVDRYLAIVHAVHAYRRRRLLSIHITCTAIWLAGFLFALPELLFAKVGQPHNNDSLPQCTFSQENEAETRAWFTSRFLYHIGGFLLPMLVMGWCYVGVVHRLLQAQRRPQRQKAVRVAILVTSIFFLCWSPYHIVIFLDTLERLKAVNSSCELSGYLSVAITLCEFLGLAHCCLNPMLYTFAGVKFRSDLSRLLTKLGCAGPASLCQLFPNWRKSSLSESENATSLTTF


Tests used:
[1] = molecular target: T1, cynomolgus monkey (Macaca fascicularis) …; assay: FACS on CXCR5 expressing cells
Procedure: (§1) Binding of anti-CXCR5 antibodies to cell lines and primary cells expressing human CXCR5 or species orthologues was assessed by FACS. Briefly, approximately 1×10⁵ CXCR5 expressing cells were suspended in FACS buffer (PBS containing 1% FBS and 0.02% sodium azide) containing increasing concentrations of anti-CXCR5 antibodies ranging from 0-100 μg/ml, and incubated for 20 min at 4° C. Cells were washed and then resuspended in FACS buffer containing PE-labelled goat anti-human IgG (Jackson labs) for 20 min at 4° C. Cells were then washed 3 times and resuspended in 100 μl FACS buffer and analysed on a FACScalibur instrument (BD Sciences). MFI was plotted against antibody concentration and Graph pad prism software was used to calculate EC₅₀ values.

human CXCR5 [2] = molecular target: T2, human CXCR5; assay: cell-based or functional assay
rat CXCR5 = molecular target: T3, rat CXCR5; assay: FACS on cells expressing species orthologues
Procedure: as §1

mouse CXCR5 = molecular target: T4, mouse CXCR5; assay: FACS on cells expressing species orthologues
Procedure: as §1

human CXCR5 [3] = molecular target: T2, human CXCR5; assay: cell-based or functional assay; remark: listed apart in the source
[4] = molecular target: T1, cynomolgus monkey (Macaca fascicularis) …; assay: cell-based or functional assay
human CXCR5 [5] = molecular target: T2, human CXCR5; assay: cell-based or functional assay; remark: listed apart in the source
human CXCR5 [6] = molecular target: T2, human CXCR5; assay: KinExA, IgG2 mAb equilibrated with HEK-293 cells expressing human CXCR5, n-curve analysis
Procedure: Kinetic Exclusion Assay (KinExA) was used to determine the concentration of the free antibody that remains in solution after equilibrium has been established between the fully human IgG2 (subtype HC2h, as described in WO2009010290) anti-CXCR5 40C01 antibody variants and human CXCR5 expressed on the cell surface of stably transfected HEK-293 cells, from which the equilibrium dissociation constant (Kd) was determined. This method provides a true measure of the affinity/avidity of the antibody to integral membrane proteins like GPCRs.
HEK-293 cells, stably expressing human CXCR5, an integral membrane protein with 7 trans membrane domains, were harvested using Accutase cell detachment solution, resuspended at 2×10⁶ cells/ml and serially diluted 1 in 2 in 15 falcon tubes using KinExA buffer (PBS containing 1 mg/ml BSA and 0.02% NaN₃). An appropriate constant concentration of purified mAb was made in KinExA buffer and an equal volume of the mAb was mixed with the serially diluted cells. […] The cells were then centrifuged and the free mAb present in the supernatant was measured by KinExA using PMMA beads (Sapidyne Instruments, cat#440198) coated with goat anti-human IgG (H+L) (Jackson ImmunoResearch, cat#109-005-003) and DyLight 649-conjugated anti-human secondary antibody (Jackson ImmunoResearch, Goat anti-human Fc, cat#109-495-098) used at 1 μg/ml in KinExA buffer. […]

human CXCR5 [7] = molecular target: T2, human CXCR5; assay: cell-based or functional assay; remark: listed apart in the source
[8] = molecular target: T1, cynomolgus monkey (Macaca fascicularis) …; assay: cell-based or functional assay
[9] = molecular target: T1, cynomolgus monkey (Macaca fascicularis) …; assay: cell-based or functional assay

binding result [1] | Mean IC50 (nM) on L1.2/human CXCR5 cells (chemotaxis) (human CXCR5 [2]) [nM] | binding result (rat CXCR5) | binding result (mouse CXCR5) | IC50, inhibition of CXCL13-induced L1.2-CXCR5 chemotaxis (human CXCR5 [3]) [nM] | IC50, inhibition of ERK phosphorylation in whole blood (B cells, CXCL13-stimulated) [4] [nM] | IC50, inhibition of ERK phosphorylation in whole blood (B cells, CXCL13-stimulated) (human CXCR5 [5]) [nM] | Kd (human CXCR5 [6]) [nM] | efficacy of inhibition of CXCL13-stimulated L1.2-CXCR5 chemotaxis (human CXCR5 [7]) [%] | IC50, inhibition of CXCL13-induced L1.2-CXCR5 chemotaxis [8] [nM] | efficacy of inhibition of CXCL13-stimulated L1.2-CXCR5 chemotaxis [9] [%] | IC50, inhibition of human CXCR5-L1.2 cell chemotaxis (human CXCR5 [7]) [nM] | mean IC50, inhibition of CXCL13-stimulated chemotaxis of primary human B cells in human serum (human CXCR5 [7]) [nM] | Binder
binds | 37 | no binding | no binding | – | – | – | – | – | – | – | – | – | mAb 80D11 (antibody, V domains shown) VH: EVQLLESGGGLVQPGGSLRLSCAASGFTFSHYWMQWVRQAPGKGLEWVSSISSSGGKTRYADSVKGRFTISRDNSKNTLYLQMNSLRAEDTAVYYCATAGYSSGWGQGTLVTVSS VL: QSALTQPASVSGSPGQSITISCTGTSSDVGGYNYLSWYQQHPGKAPKLMIYGVSNRPSGVSTRFSGSKSGNTASLTISGLQAEDEADYYCSSYTSTGTRVFGGGTRLTVL
binds | 2200 | no binding | no binding | – | – | – | – | – | – | – | – | – | mAb 12A01 (antibody, V domains shown) VH: EVQLLESGGGLVQPGGSLRLSCAASGFTFSRYVMVWVRQAPGKGLDWVSGISPSGGVTRYADSVKGRFTISRDNSKNTLYLQMNSLRAEDTAMYYCARIRKEMTTISYFFDYWGQGTLVTVSS VL: DIQMTQSPDSLSASVGDRVTITCRASQGVDIYVAWYQQKPGKVPKLLMHSASTLASGVPSRFSGRGSGTDFTLTINSLQAEDVATYYCQSHNSAVVTFGQGTRLEIK
– | – | – | – | 0.098 | – | 0.45 | – | 100 | 0.17 | 100 | 0.05 | 0.34 | anti-CXCR5 40C01-VH2-Vk3 as IgG1 (antibody) VH: EVQLLESGGGLVQPGGSLRLSCAASGFTFSRSVMVWVRQAPGKGLEWVSGISPSGGVTRYAASVKGRFTISRDNSKNTLYLQMNSLRAEDTAVYYCARIRKEKTTISYFFDYWGQGTLVTVSS light: DIQMTQSPSSLSASVGDRVTITCRASQGVDAYVAWYQQKPGKVPKLLIYSTSTLASGVPSRFSGSGSGTDFTLTISSLQPEDVATYYCQSHNAAVVTFGQGTRLEIKRTVAAPSVFIFPPSDEQLKSGTASVVCLLNNFYPREAKVQWKVDNALQSGNSQESVTEQDSKDSTYSLSSTLTLSKADYEKHKVYACEVTHQGLSSPVTKSFNRGEC
binds | 5.6 | no binding | no binding | – | – | – | – | – | – | – | – | – | mAb 40C01 (antibody, V domains shown, also called 40C01 VH-VL; 40C01 parental molecule) VH: EVQLLESGGGLVQPGGSLRLSCAASGFTFSRYVMVWVRQAPGKGLDWVSGISPSGGVTRYADSVKGRFTISRDNSKNTLYLQMNSLRAEDTAMYYCARIRKEMTTISYFFDYWGQGTLVTVSS VL: DIQMTRAPDSLSASVGDRVTITCRASQGVDIYVAWYQQKPGKAPKLLMHSASTLASGVPSRFSGRGSGTDFTLTINSLQAEDVATYYCQSHNSAVVTFGQGTRLEIK

Second part, the binder before the results:

Binder | binding result [1] | Mean IC50 (nM) on L1.2/human CXCR5 cells (chemotaxis) (human CXCR5 [2]) [nM] | binding result (rat CXCR5) | binding result (mouse CXCR5) | IC50, inhibition of CXCL13-induced L1.2-CXCR5 chemotaxis (human CXCR5 [3]) [nM] | IC50, inhibition of ERK phosphorylation in whole blood (B cells, CXCL13-stimulated) [4] [nM] | IC50, inhibition of ERK phosphorylation in whole blood (B cells, CXCL13-stimulated) (human CXCR5 [5]) [nM] | Kd (human CXCR5 [6]) [nM] | efficacy of inhibition of CXCL13-stimulated L1.2-CXCR5 chemotaxis (human CXCR5 [7]) [%] | IC50, inhibition of CXCL13-induced L1.2-CXCR5 chemotaxis [8] [nM] | efficacy of inhibition of CXCL13-stimulated L1.2-CXCR5 chemotaxis [9] [%] | IC50, inhibition of human CXCR5-L1.2 cell chemotaxis (human CXCR5 [7]) [nM] | mean IC50, inhibition of CXCL13-stimulated chemotaxis of primary human B cells in human serum (human CXCR5 [7]) [nM]
anti-CXCR5 40C01-VH1-Vk3-IgG2_DI-NQ-HC2h (antibody, Whole antibody, modified human IgG2 (subtype HC2h, WO2009010290), kappa light chain; also called 40C01-VH1-Vk3 as IgG2; VH1-Vk3 (isotype 2)) heavy: EVQLLESGGGLVQPGGSLRLSCAASGFTFSRYVMVWVRQAPGKGLEWVSGISPSGGVTRYAASVKGRFTISRDNSKNTLYLQMNSLRAEDTAVYYCARIRKEMTTISYFFDYWGQGTLVTVSSASTKGPSVFPLAPCSRSTSESTAALGCLVKDYFPEPVTVSWNSGALTSGVHTFPAVLQSSGLYSLSSVVTVPSSNFGTQTYTCNVDHKPSNTKVDKTVEPKSSDKTHTCPPCPAPPVAGPSVFLFPPKPKDTLMISRTPEVTCVVVDVSHEDPEVQFNWYVDGVEVHNAKTKPREEQAQSTFRVVSVLTVVHQDWLNGKEYKCKVSNKGLPAPIEKTISKTKGQPREPQVYTLPPSREEMTKNQVSLTCLVKGFYPSDIAVEWESNGQPENNYKTTPPMLDSDGSFFLYSKLTVDKSRWQQGNVFSCSVMHEALHNHYTQKSLSLSPG light: DIQMTQSPSSLSASVGDRVTITCRASQGVDAYVAWYQQKPGKVPKLLIYSTSTLASGVPSRFSGSGSGTDFTLTISSLQPEDVATYYCQSHNAAVVTFGQGTRLEIKRTVAAPSVFIFPPSDEQLKSGTASVVCLLNNFYPREAKVQWKVDNALQSGNSQESVTEQDSKDSTYSLSSTLTLSKADYEKHKVYACEVTHQGLSSPVTKSFNRGEC | – | – | – | – | 1.15 | 0.195 | 0.736 | 0.0154 | 100 | – | – | – | –
anti-CXCR5 40C01-VH1-Vk3-IgG1 (antibody) heavy: not shown light: DIQMTQSPSSLSASVGDRVTITCRASQGVDAYVAWYQQKPGKVPKLLIYSTSTLASGVPSRFSGSGSGTDFTLTISSLQPEDVATYYCQSHNAAVVTFGQGTRLEIKRTVAAPSVFIFPPSDEQLKSGTASVVCLLNNFYPREAKVQWKVDNALQSGNSQESVTEQDSKDSTYSLSSTLTLSKADYEKHKVYACEVTHQGLSSPVTKSFNRGEC | – | – | – | – | 1.81 | – | 0.17 | – | 100 | 0.19 | 100 | 0.38 | 1.89
